Consider five molecules from patent US20050147555A1 (BRACCO SUISSE, published 2005).

Positions of bridges follow the written chain, without caps; N, C: chain ends. Groups on a side chain read outwards from the residue. Chains are numbered I, II in the order given. No end group written: not given here. *: point of attachment. Biotin = O=C1N[C@H]2[C@H](CS[C@H]2CCCCC(=O)*)N1; fluorescein = fluorescein label on a side chain; AEEA = NCCOCCOCC(=O)O A value given as a limit tells only on which side of the number the result lay.

The target in test [1] is T1, Soluble KDR receptor (UniProt P35968 20-764, limits assumed).
T1 construct: Immobilised by amine coupling, RL 12721
T1 sequence (P35968 20-764 limits assumed): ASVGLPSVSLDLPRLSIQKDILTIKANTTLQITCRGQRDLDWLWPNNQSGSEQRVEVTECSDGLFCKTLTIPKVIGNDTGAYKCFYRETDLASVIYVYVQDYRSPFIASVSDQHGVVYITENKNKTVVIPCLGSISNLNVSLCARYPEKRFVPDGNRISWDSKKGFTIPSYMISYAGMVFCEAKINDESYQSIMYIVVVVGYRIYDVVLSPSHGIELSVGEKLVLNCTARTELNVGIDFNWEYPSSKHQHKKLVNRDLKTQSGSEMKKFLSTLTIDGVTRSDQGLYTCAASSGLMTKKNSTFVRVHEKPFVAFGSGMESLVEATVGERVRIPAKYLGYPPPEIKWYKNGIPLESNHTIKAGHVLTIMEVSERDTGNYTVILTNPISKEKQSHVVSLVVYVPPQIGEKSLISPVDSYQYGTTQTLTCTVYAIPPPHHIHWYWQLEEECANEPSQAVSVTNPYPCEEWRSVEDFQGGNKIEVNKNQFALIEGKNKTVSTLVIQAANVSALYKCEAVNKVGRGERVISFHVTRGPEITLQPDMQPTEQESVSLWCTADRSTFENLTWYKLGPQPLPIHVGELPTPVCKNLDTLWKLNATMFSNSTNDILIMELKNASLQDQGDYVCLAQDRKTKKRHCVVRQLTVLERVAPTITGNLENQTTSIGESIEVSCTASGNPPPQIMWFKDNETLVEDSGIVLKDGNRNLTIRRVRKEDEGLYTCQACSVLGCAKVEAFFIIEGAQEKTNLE
Briefly: SPR (Biacore 3000), soluble KDR on CM5 chip; ratio of the KD of monomer P9 to the apparent KD of the tail-to-tail dimer. On the technique in general: SPR reads the build-up and loss of mass on a sensor chip optically.
Protocol: (§1) Soluble KDR receptor was cross-linked to the dextran surface of a CM5 sensor chip by the standard amine coupling procedure. […] For association, peptides were injected at 20 μL/min for 2 minutes using the kinject program. Following a 3 minute dissociation period, any remaining peptide was stripped from the KDR surface with a quickinject of 50 mM NaOH, 1M NaCl for 15 s at 75 μL/min. […] Sensorgrams were analyzed by global analysis using BIAevaluation software 3.1.
By design, the interaction of a dimeric peptide with KDR is expected to proceed through two kinetic steps.

Test [2] has as its target T1, Soluble KDR receptor. Briefly: SPR (Biacore 3000), soluble KDR on CM5 chip; apparent KD.
Protocol: as §1
The target in test [3] is T1, Soluble KDR receptor. Briefly: SPR (Biacore 3000), soluble KDR on CM5 chip; ka,1 (initial encounter).
Protocol: as §1
In test [4] the target is T1, Soluble KDR receptor. Briefly: SPR (Biacore 3000), soluble KDR on CM5 chip; column kd,1, by the text the predominant off-rate kd,2.
Protocol: as §1
Test [5] deals with T1, Soluble KDR receptor. Briefly: Biacore.
Protocol: as §1
Test [6] deals with T2, KDR (VEGFR-2, Flk-1), full-length receptor on cells (human, UniProt P35968 20-1356).
T2 construct: whole, on cells; endogenous on HUVECs in the functional assays; also called VEGF receptor 2
T2 sequence (P35968 20-1356): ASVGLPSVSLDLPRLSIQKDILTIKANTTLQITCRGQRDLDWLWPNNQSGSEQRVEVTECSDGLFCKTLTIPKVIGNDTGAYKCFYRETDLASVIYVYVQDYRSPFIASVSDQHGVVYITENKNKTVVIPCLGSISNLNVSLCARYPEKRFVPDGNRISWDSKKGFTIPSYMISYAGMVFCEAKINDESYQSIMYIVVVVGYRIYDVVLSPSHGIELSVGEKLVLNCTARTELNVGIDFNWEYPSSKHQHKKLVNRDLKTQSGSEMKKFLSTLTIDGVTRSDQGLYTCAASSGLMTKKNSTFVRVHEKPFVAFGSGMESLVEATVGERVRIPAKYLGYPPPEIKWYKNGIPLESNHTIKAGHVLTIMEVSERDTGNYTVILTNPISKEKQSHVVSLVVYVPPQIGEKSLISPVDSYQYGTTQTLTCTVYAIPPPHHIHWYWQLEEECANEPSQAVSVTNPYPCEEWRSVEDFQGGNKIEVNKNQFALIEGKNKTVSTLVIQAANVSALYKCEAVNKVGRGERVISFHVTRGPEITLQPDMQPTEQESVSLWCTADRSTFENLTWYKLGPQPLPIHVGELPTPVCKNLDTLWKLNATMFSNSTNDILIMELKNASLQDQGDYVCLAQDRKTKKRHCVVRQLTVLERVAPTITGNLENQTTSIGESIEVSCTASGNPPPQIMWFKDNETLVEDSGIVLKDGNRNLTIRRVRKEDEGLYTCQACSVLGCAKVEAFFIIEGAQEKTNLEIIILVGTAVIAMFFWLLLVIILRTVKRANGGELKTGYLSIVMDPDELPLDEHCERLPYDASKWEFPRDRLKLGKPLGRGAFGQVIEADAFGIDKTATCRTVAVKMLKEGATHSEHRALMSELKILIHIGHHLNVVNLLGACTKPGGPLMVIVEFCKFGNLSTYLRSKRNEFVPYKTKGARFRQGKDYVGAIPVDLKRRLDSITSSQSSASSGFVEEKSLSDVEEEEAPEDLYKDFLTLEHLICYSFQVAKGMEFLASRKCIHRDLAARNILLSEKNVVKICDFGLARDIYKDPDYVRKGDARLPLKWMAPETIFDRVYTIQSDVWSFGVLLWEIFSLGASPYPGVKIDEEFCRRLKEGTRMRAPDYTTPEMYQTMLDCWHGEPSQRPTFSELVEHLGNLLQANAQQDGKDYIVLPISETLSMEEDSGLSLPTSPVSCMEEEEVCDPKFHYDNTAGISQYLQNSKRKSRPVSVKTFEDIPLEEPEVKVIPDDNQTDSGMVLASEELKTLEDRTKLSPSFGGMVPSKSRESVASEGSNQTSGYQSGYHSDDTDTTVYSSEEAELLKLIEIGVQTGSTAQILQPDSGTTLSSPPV
The experiment in a line: displacement of P12-XB/streptavidin-HRP complex (5.5 nM) from KDR-expressing cells.

Test [7] concerns the target T3, KDR-Fc (chimeric fusion of Ig Fc region with human KDR, R&D Systems #357-KD-050) (human, UniProt P35968 20-764).
T3 construct: Bought; also called KDR Fc fusion; not shown: Ig Fc region of the bought chimera
The experiment in a line: fluorescence polarisation, monodentate peptide against KDRFc. (In general: In fluorescence polarisation assays a small probe gives low polarisation when free and higher when bound to something large.)

In test [8] the target is T2, KDR (VEGFR-2, Flk-1), full-length …. The experiment in a line: saturation binding of peptide/neutravidin-HRP complex, KDR- minus mock-transfected 293H cells.
Protocol: After incubation at room temperature, plates were transferred to 4° C. for another half-hour incubation. Subsequently, cells were washed five times with ice-cold M199 media and 1× with ice-cold PBS (in that order). After the final wash, 100 μL of ice cold TMB solution (KPL, cat. # 50-76-00) was added to each well, and each plate was incubated for 30 minutes at 37° C. in an air incubator.
Therefore, absorbance on the Y-axis of FIG. 8 is differential absorbance (KDR minus mock) and not the absolute absorbance.
In test [9] the target is T1, Soluble KDR receptor. The experiment in a line: SPR (Biacore 3000), soluble KDR on CM5 chip; ratio of the KD of monomer P10 to the apparent KD of the head-to-head dimer.
Protocol: as §1
Test [10] has as its target T1, Soluble KDR receptor. Briefly: SPR (Biacore 3000), soluble KDR on CM5 chip; column kd,1, by the text the predominant off-rate kd,2; predominant off-rate (kd,2 by the text) printed under the head kd,1.
Protocol: as §1

T3 sequence (P35968 20-764, change not shown): as the sequence (P35968 20-764 limits assumed) above

B1: Tail-to-tail dimer of P9 and P10 (peptide)
peptide 1: Ac-AQEPEGYAYWEVITLYHEEDGDGGK-NH2
peptide 2: Ac-AQAFPRFGGDDYWIQQYLRYTDGGK-NH2
modifications: bridge I:25-II:25; not fully specified (bridges); printed as Ac-AQEPEGYAYWEVITLYHEEDGDGGK(Ac-AQAFPRFGGDDYWIQQYLRYTDGGK(—(O═)C(CH2CH2O)4CH2CH2NHC(═O)CH2CH2C(CH3)═NOCH2C(═O)NH(CH2CH2O)4CH2CH2C(═O)—)NH2)NH2; also: tail-to-tail dimer of two peptides joined through the Lys25 side chains
notes: also called T-T dimer; D31
B1: in the test with Soluble KDR receptor [1], the “fold increase in affinity over monomer P9” value was above 60 fold. Also, the values for the Kd with Soluble KDR receptor [2] and with Soluble KDR receptor [5] were 11.1 nM and 11 nM, respectively. Besides, the kon (in general, the second-order rate constant of association) with Soluble KDR receptor [3] amounted to 115000 M⁻¹ s⁻¹. Moreover, the koff (as a rule, a measure of how fast the partners let go of each other) with Soluble KDR receptor [4] came out at 0.00128 s⁻¹.

B2: P34-L (peptide)
peptide: Ac-AGPTWKEDDWYYEWLFGTGGGK-NH2
modifications: lactam 6-13
SMILES: CC(=O)N[C@@H](C)C(=O)NCC(=O)N1CCC[C@H]1C(=O)N[C@H](C(=O)N[C@@H](Cc1c[nH]c2ccccc12)C(=O)N[C@H]1CCCCNC(=O)CC[C@@H](C(=O)N[C@@H](Cc2c[nH]c3ccccc23)C(=O)N[C@@H](CC(C)C)C(=O)N[C@@H](Cc2ccccc2)C(=O)NCC(=O)N[C@H](C(=O)NCC(=O)NCC(=O)NCC(=O)N[C@@H](CCCCN)C(N)=O)[C@@H](C)O)NC(=O)[C@H](Cc2ccc(O)cc2)NC(=O)[C@H](Cc2ccc(O)cc2)NC(=O)[C@H](Cc2c[nH]c3ccccc23)NC(=O)[C@H](CC(=O)O)NC(=O)[C@H](CC(=O)O)NC(=O)[C@H](CCC(=O)O)NC1=O)[C@@H](C)O
notes: also called lactam analog of P12-G
On to B2, for which, in test [6], the IC50 (usually the midpoint of a concentration-inhibition curve) was 108 nM. That is a sub-micromolar value.
For the molecule AGPTWCEDDWYYCWLFGTGGGK(fluorescein)-NH2 (disulfide 6-13 (inferred)) [P12, monodentate peptide measured by FP], the Kd in test [7] came out at 3 nM.

B3: P6-XB (4X) on neutravidin-HRP (other)
peptide: Ac-GDSRVCWEDSWGGEVCFRYDPGGGK([AEEA-AEEA-Biotin])-NH2
modifications: disulfide 6-16; also: four peptides bound to neutravidin-HRP
notes: Peptides held on the four biotin sites of neutravidin-HRP; also called tetrameric P6-XB; P6-XB Tetramer
On to B3, for which the Kd in test [8] came out at 10 nM.

B4: Head-to-head dimer of P9 and P10 (peptide)
peptide 1: AQEPEGYAYWEVITLYHEEDGDGG
peptide 2: AQAFPRFGGDDYWIQQYLRYTDGG
modifications: not fully specified; N-terminal amino group carries an NH-PEG4-CO linker and amino-oxyacetyl group, oxime-linked to the other chain; N-terminal amino group carries an NH-PEG4-CO linker and levulinyl group, oxime-linked to the other chain
notes: also called H-H dimer
For the molecule B4, in the test with Soluble KDR receptor [9], the “fold increase in affinity over monomer P10” value was above 560 fold. The Kd with Soluble KDR receptor [2] came to 2.24 nM. This molecule came in with a kon in the test with Soluble KDR receptor [3] of 111000 M⁻¹ s⁻¹. For the same molecule, the koff in the test with Soluble KDR receptor [10] stood at 0.000249 s⁻¹.
